From patent publication US20200216506A1 (CHILDREN S MEDICAL CENTER, published 2020)

Experiments:
[1] = biological target: T1, IKKβ (UniProt O88351 1-757); experiment: MyD88 co-immunoprecipitation from LPS-stimulated iBMDMs, western blot (FIG. 74A)
T1 sequence (looked up): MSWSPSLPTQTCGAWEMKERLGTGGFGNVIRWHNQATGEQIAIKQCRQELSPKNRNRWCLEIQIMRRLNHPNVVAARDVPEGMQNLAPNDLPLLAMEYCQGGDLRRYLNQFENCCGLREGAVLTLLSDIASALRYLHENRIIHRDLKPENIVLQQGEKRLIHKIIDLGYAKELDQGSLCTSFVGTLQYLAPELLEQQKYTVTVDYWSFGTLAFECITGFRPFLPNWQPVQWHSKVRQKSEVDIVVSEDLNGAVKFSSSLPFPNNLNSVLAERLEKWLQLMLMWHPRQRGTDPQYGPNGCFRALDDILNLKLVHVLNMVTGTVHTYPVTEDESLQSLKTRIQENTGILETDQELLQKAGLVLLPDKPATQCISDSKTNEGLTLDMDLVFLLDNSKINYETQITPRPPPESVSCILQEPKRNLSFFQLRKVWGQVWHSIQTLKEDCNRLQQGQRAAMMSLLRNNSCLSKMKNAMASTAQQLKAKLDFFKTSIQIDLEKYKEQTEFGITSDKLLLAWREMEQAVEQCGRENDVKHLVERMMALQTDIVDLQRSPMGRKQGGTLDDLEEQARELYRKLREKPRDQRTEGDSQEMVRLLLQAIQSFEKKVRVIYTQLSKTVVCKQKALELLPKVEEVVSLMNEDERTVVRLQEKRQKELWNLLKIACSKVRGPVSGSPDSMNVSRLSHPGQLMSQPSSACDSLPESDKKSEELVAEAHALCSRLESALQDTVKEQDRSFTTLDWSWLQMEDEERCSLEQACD
Text: (§1) Data represent mean±SEM of triplicate wells. […] Data represent mean±SEM of triplicate wells.

[2] = biological target: NEMO (UniProt O88522 1-412); experiment: as above
Text: as §1

NEMO, sequence (O88522 whole entry): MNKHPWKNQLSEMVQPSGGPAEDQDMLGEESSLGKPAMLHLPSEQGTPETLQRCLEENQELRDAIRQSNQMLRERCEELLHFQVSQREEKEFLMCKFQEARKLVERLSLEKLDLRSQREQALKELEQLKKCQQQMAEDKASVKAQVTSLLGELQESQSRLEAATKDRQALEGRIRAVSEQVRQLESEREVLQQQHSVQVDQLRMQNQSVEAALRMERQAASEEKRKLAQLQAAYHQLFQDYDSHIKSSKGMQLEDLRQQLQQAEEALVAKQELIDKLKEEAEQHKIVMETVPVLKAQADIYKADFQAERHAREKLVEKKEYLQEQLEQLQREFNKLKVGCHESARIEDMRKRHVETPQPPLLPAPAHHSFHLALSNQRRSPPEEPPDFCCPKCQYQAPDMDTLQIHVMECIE

B1: MyD88 (other, UniProt P22366 1-296, looked up)
chain: MSAGDPRVGSGSLDSFMFSIPLVALNVGVRRRLSLFLNPRTPVAADWTLLAEEMGFEYLEIRELETRPDPTRSLLDAWQGRSGASVGRLLELLALLDREDILKELKSRIEEDCQKYLGKQQNQESEKPLQVARVESSVPQTKELGGITTLDDPLGQTPELFDAFICYCPNDIEFVQEMIRQLEQTDYRLKLCVSDRDVLPGTCVWSIASELIEKRCRRMVVVVSDDYLQSKECDFQTKFALSLSPGVQQKRLIPIKYKAMKKDFPSILRFITICDYTNPCTKSWFWTRLAKALSLP
notes: Adaptor protein and core of the myddosome; also called endogenous MyD88; myeloid differentiation primary response gene 88
B1: no binding [1]; no binding [2].
